From publication PMC3430610, “Brassica napus PHR1 Gene Encoding a MYB-Like Protein Functions in Response to Phosphate Starvation”

Biological target: MBP-BnPHR1 (Brassica napus, UniProt W5QL02 1-417)
Experiment: EMSA; EMSA: 750 mM KCl, 0.5 mM DTT, 0.5 mM EDTA, 50 mM Tris pH 7.4 (so in the source), room temperature, 20 min; native PAGE, SYBR Green then SYPRO Ruby stain
Conditions: protein: recombinant; tags: N-terminal MBP (pMAL-c2); chain copies: 2; label: none (SYBR Green post-stain); 5' overhang 4 nt on both strands (AATT and CCGG), 41 bp duplex

MBP-BnPHR1, sequence (W5QL02 entry or part of it): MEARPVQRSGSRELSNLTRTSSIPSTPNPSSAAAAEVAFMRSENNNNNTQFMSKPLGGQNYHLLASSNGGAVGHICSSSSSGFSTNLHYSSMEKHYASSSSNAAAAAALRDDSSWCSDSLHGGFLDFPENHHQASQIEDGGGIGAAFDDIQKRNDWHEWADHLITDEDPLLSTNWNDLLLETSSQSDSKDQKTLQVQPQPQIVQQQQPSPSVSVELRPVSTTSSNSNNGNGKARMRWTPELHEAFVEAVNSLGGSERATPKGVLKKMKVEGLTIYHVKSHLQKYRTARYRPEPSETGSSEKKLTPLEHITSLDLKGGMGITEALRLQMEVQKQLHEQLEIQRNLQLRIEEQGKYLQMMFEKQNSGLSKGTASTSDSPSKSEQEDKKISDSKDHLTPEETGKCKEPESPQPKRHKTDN

B1: BnPT2 promoter probe (BnPT2p1/p2) (dsDNA)
DNA 1: AATTGGAGGGGAATATACCGAAACATTGTTGTATATTCATGTAAG
DNA 2: CCGGCTTACATGAATATACAACAATGTTTCGGTATATTCCCCTCC
  binding result: binds
